Assay results taken from US20060127407A1.

Biological target: alphaVbeta3 integrin (human) (UniProt P06756)
Assay: ELISA, purified antibody on alphaVbeta3

alphaVbeta3 integrin (human), sequence (P06756 31-1048, chain 1 of 2): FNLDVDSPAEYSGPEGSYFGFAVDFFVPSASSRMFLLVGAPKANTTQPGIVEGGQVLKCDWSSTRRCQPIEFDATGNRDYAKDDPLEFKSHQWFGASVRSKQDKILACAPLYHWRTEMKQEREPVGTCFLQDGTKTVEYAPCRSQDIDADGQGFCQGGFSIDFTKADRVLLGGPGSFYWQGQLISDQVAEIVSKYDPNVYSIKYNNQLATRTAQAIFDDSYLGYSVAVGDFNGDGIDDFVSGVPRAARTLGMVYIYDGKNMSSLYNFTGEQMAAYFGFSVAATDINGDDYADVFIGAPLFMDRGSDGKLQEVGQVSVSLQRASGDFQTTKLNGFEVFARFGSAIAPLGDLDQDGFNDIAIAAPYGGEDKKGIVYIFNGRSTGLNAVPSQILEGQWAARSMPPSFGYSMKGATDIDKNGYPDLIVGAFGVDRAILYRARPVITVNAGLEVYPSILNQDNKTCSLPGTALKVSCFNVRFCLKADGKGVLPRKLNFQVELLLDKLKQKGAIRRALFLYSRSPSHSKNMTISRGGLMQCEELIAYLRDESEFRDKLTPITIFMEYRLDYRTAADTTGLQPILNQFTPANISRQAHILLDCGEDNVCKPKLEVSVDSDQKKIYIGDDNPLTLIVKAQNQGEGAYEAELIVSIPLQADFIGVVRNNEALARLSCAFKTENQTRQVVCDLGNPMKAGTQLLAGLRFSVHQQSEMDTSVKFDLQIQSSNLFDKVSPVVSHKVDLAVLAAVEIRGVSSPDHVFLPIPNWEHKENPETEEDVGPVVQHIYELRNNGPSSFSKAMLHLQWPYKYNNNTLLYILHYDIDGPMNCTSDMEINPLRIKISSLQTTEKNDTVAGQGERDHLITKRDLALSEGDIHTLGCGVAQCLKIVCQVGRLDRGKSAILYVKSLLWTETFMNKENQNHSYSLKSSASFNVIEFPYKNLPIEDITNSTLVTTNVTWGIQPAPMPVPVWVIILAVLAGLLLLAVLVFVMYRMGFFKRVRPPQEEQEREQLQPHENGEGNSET
alphaVbeta3 integrin (human), sequence (P05106 27-788, chain 2 of 2, further chain): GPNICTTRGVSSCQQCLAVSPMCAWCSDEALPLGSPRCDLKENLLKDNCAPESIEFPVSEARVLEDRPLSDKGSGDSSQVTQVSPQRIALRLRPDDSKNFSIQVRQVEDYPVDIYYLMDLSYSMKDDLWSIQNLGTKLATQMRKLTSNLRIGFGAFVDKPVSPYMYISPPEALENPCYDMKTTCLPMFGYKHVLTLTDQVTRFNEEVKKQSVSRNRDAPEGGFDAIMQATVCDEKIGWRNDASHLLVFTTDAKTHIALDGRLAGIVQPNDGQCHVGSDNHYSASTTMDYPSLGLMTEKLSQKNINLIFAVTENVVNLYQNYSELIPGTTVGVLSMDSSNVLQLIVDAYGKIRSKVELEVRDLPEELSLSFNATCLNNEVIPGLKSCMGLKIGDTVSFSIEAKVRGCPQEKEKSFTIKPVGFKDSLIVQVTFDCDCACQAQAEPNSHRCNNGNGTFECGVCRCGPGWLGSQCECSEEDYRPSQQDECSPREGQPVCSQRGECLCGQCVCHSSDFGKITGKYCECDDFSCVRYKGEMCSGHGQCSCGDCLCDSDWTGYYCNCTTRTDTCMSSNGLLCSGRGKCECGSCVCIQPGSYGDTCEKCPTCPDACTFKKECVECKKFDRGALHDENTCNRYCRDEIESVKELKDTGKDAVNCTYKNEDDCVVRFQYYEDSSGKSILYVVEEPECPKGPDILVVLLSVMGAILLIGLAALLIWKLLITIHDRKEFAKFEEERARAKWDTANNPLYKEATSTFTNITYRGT

B1: c7E3 IgG (antibody, INN chains, looked up, V domains shown)
VH: EVQLQQSGTVLARPGASVKMSCEASGYTFTNYWMHWVKQRPGQGLEWIGAIYPGNSDTSYIQKFKGKAKLTAVTSTTSVYMELSSLTNEDSAVYYCTLYDGYYVFAYWGQGTLVTVSA
VL: EIVLTQSPVTLSVTPGDSVSLSCRASRDISNNLHWFQQTSHESPRLLIKYASQSMSGIPSRFSGSGSGTDFTLSINSVETEDFGMYFCQQTNSWPYTFGGGTKLEIK
modifications: IgG
Question: Which EC50 does the source give for B1 here?
Answer: Its EC50 is 0.07 µg/mL.
